Measurements from the supplement of paper PMC7877785.
± gives the uncertainty stated by the source.

Experiment: self-splicing fitness, log relative to wild type (ln ratio); higher = more splicing; Tetrahymena group I intron in knt gene, E. coli kanamycin selection, DiMSum; sequences stand for … in CUCUCU…GGAGGGAAAAGUUAUCAGGCAUGCACCUGGUAGCUAGUCUUUAAACCAAUAGAUUGCAUCGGUUUAAAAGGCAAGACCGUCAAAUUGCGGGAAAGGGGUCAACAGCCGUUCAGUACCAAGUCUCAGGGGAAACUUUGAGAUGGCCUUGCAAAGGGUAUGGUAAUAAGCUGACGGACAUGGUCCUAACCACGCAGCCAAGUCCUAAGUCAACAGAUCUUCUGUUGAUAUGGAUGCAGUUCACAGACUAAAUGUCGGUCGGGGAAGAUGUAUUCUUCUCAUAAGAUAUAGUCGGACCUCUCCUUAAUGGGAGCUAGCGGAUGAAGUGAUGCAACACUGGAGCCGCUGGGAACUAAUUUGUAUGCGAAAGUAUAUUGAUUAGUUUUGGAGUACUCGUGGUCG
In short: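 A randomised library covering all eight P1ex-region intron nucleotides was built with the intron in the knt kanamycin-resistance gene on pET-22b(+) and held in E. coli BL21(DE3). Cells were grown overnight at 37°C or 30°C on LB agar, with or without 25 μg/mL kanamycin, plus 100 μg/mL carbenicillin, 50 μM IPTG and 0.2% rhamnose, and pooled colonies were amplicon-sequenced on an Illumina HiSeq 2500. DiMSum fitness is the error-weighted combination of wild-type-normalised replicate fold changes, kanamycin versus none.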

| Sequence | self-splicing fitness (ln) (30 °C) | self-splicing fitness (ln) (37 °C) |
| --- | --- | --- |
| UAUUAGCAAUAUUACGUUCA | -1.04 ± 0.1 | -0.21 ± 0.14 |
| UAUUAGCAAUAUUACGUUGG | -2.1 ± 0.21 | -0.685 ± 0.18 |
| UCAAAGCAAUAUUACGAACC | -2.8 ± 0.27 | -0.879 ± 0.28 |
| UCAAAGCAAUAUUACGAAGU | -2.96 ± 0.16 | -2.39 ± 0.24 |
| UCAAAGCAAUAUUACGACCA | -1.97 ± 0.22 | -1.4 ± 0.23 |
| UCAAAGCAAUAUUACGACCC | -3.88 ± 0.35 | -2.34 ± 0.39 |
| UCAAAGCAAUAUUACGAUCG | -0.659 ± 0.085 | -0.141 ± 0.11 |
| UCAAAGCAAUAUUACGCACU | -2.08 ± 0.11 | -2.5 ± 0.22 |
| UCAAAGCAAUAUUACGCCCC | -2.12 ± 0.39 | -1.54 ± 0.37 |
| UCAAAGCAAUAUUACGCCUA | -2.71 ± 0.2 | -0.722 ± 0.11 |
| UCAAAGCAAUAUUACGCGAG | -0.91 ± 0.12 | -0.54 ± 0.14 |
| UCAAAGCAAUAUUACGCUCU | -3.71 ± 0.27 | -2.69 ± 0.26 |
| UCAAAGCAAUAUUACGCUGA | -3.43 ± 0.29 | -1.62 ± 0.23 |
| UCAAAGCAAUAUUACGCUUU | -3.89 ± 0.46 | -1.72 ± 0.27 |
| UCAAAGCAAUAUUACGGAAC | -4.3 ± 0.32 | – |
| UCAAAGCAAUAUUACGGACC | – | -2.54 ± 0.32 |
| UCAAAGCAAUAUUACGGAGC | – | -3.53 ± 0.33 |
| UCAAAGCAAUAUUACGGAUG | -2.78 ± 0.08 | -1.32 ± 0.086 |
| UCAAAGCAAUAUUACGGAUU | -3.73 ± 0.24 | -2.26 ± 0.21 |
| UCAAAGCAAUAUUACGGCCC | -3.79 ± 0.47 | -2.18 ± 0.46 |

| Sequence | self-splicing fitness (ln) (30 °C) | self-splicing fitness (ln) (37 °C) |
| --- | --- | --- |
| UCAAAGCAAUAUUACGGCGU | -0.917 ± 0.065 | -0.201 ± 0.086 |
| UCAAAGCAAUAUUACGGUCG | -0.405 ± 0.069 | -0.439 ± 0.094 |
| UCAAAGCAAUAUUACGGUUU | -3.06 ± 0.21 | -3 ± 0.27 |
| UCAAAGCAAUAUUACGUACC | -3.01 ± 0.3 | -1.69 ± 0.3 |
| UCAAAGCAAUAUUACGUCCU | -3.34 ± 0.29 | -1.98 ± 0.24 |
| UCAAAGCAAUAUUACGUUGC | -3.48 ± 0.19 | -3.23 ± 0.26 |
| UCACAGCAAUAUUACGAUCC | -3.08 ± 0.2 | -2.03 ± 0.22 |
| UCACAGCAAUAUUACGAUUC | -3.61 ± 0.16 | -3.05 ± 0.18 |
| UCACAGCAAUAUUACGCAAA | -2.74 ± 0.19 | -2.91 ± 0.17 |
| UCACAGCAAUAUUACGCAAU | – | -2.13 ± 0.14 |
| UCACAGCAAUAUUACGCCAG | -1.6 ± 0.15 | -0.668 ± 0.25 |
| UCACAGCAAUAUUACGCGCA | -0.0823 ± 0.068 | 0.0608 ± 0.075 |
| UCACAGCAAUAUUACGCGGC | -3.63 ± 0.23 | -2.5 ± 0.28 |
| UCACAGCAAUAUUACGCUAU | – | -2.23 ± 0.21 |
| UCACAGCAAUAUUACGGAAC | -2.98 ± 0.21 | -2.45 ± 0.26 |
| UCACAGCAAUAUUACGGCAG | -2.03 ± 0.12 | -0.996 ± 0.16 |
| UCACAGCAAUAUUACGGGAC | -2.77 ± 0.21 | -1.76 ± 0.18 |
| UCACAGCAAUAUUACGGGCA | -0.496 ± 0.075 | -0.337 ± 0.083 |
| UCACAGCAAUAUUACGGGGG | -2.39 ± 0.15 | -2.03 ± 0.16 |
